Results: the Human Domainome abundance scans (Beltran et al. 2025)
± gives the uncertainty stated by the source.

assay: abundance fitness (aPCA) (normalised: wild type 0, dead -1); higher = more abundant; growth selection in yeast, the domain comes from the species named; conditions: Homo sapiens

Substance	abundance fitness
DnaJ homolog subfamily B member 1 L29D, P25685	-0.089 ± 0.16
DnaJ homolog subfamily B member 1 I48D, P25685	-0.667 ± 0.12
DnaJ homolog subfamily B member 1 E38H, P25685	0.017 ± 0.2
DnaJ homolog subfamily B member 1 E50V, P25685	-0.085 ± 0.078
DnaJ homolog subfamily B member 1 D57I, P25685	-0.637 ± 0.22
DnaJ homolog subfamily B member 1 I63R, P25685	0.044 ± 0.074
DnaJ homolog subfamily B member 1 Y52P, P25685	-0.466 ± 0.1
DnaJ homolog subfamily B member 1 P39H, P25685	0.054 ± 0.28
DnaJ homolog subfamily B member 1 R30T, P25685	-0.026 ± 0.1
DnaJ homolog subfamily B member 1 G10C, P25685	-0.587 ± 0.26
DnaJ homolog subfamily B member 1 F45L, P25685	-0.21 ± 0.055
DnaJ homolog subfamily B member 1 K37P, P25685	-0.306 ± 0.14
DnaJ homolog subfamily B member 1 D17K, P25685	-0.287 ± 0.14
DnaJ homolog subfamily B member 1 Y31P, P25685	-0.537 ± 0.095
DnaJ homolog subfamily B member 1 S16M, P25685	-0.258 ± 0.073
DnaJ homolog subfamily B member 1 I48V, P25685	-0.267 ± 0.089
DnaJ homolog subfamily B member 1 S56F, P25685	-0.526 ± 0.12
DnaJ homolog subfamily B member 1 Y6N, P25685	-0.523 ± 0.13
DnaJ homolog subfamily B member 1 E50F, P25685	-0.612 ± 0.19
DnaJ homolog subfamily B member 1 R26D, P25685	0.327 ± 0.25
DnaJ homolog subfamily B member 1 Y52C, P25685	-0.404 ± 0.21
DnaJ homolog subfamily B member 1 R59M, P25685	-0.256 ± 0.19
DnaJ homolog subfamily B member 1 H32F, P25685	-0.139 ± 0.16
DnaJ homolog subfamily B member 1 E18N, P25685	-0.045 ± 0.18
DnaJ homolog subfamily B member 1 P39A, P25685	-0.037 ± 0.074

Substance	abundance fitness
DnaJ homolog subfamily B member 1 E42C, P25685	-0.048 ± 0.097
DnaJ homolog subfamily B member 1 F45T, P25685	-0.281 ± 0.075
DnaJ homolog subfamily B member 1 P33R, P25685	-0.06 ± 0.078
DnaJ homolog subfamily B member 1 D17Y, P25685	-0.09 ± 0.078
DnaJ homolog subfamily B member 1 P58E, P25685	-0.149 ± 0.086
DnaJ homolog subfamily B member 1 N36Y, P25685	-0.195 ± 0.11
DnaJ homolog subfamily B member 1 A51E, P25685	-0.718 ± 0.098
DnaJ homolog subfamily B member 1 G14A, P25685	-0.353 ± 0.13
DnaJ homolog subfamily B member 1 Q7F, P25685	0.066 ± 0.11
DnaJ homolog subfamily B member 1 A51C, P25685	-0.755 ± 0.18
DnaJ homolog subfamily B member 1 I20D, P25685	-0.766 ± 0.17
DnaJ homolog subfamily B member 1 A51F, P25685	-1.49 ± 0.19
DnaJ homolog subfamily B member 1 Q7Y, P25685	0.022 ± 0.13
DnaJ homolog subfamily B member 1 E47G, P25685	-0.054 ± 0.076
DnaJ homolog subfamily B member 1 S56N, P25685	-0.343 ± 0.15
DnaJ homolog subfamily B member 1 Y52N, P25685	-0.195 ± 0.14
DnaJ homolog subfamily B member 1 D57M, P25685	-0.366 ± 0.084
DnaJ homolog subfamily B member 1 A23P, P25685	-0.917 ± 0.095
DnaJ homolog subfamily B member 1 V54A, P25685	-0.201 ± 0.2
DnaJ homolog subfamily B member 1 I20M, P25685	-0.575 ± 0.12
DnaJ homolog subfamily B member 1 D53T, P25685	0.032 ± 0.086
DnaJ homolog subfamily B member 1 P58A, P25685	-0.081 ± 0.09
DnaJ homolog subfamily B member 1 E18A, P25685	-0.067 ± 0.074
DnaJ homolog subfamily B member 1 E50H, P25685	-0.222 ± 0.17
DnaJ homolog subfamily B member 1 K60Q, P25685	-0.128 ± 0.085

Substance	abundance fitness
DnaJ homolog subfamily B member 1 H32D, P25685	-0.241 ± 0.23
DnaJ homolog subfamily B member 1 P58G, P25685	-0.238 ± 0.079
DnaJ homolog subfamily B member 1 E42F, P25685	-0.171 ± 0.1
DnaJ homolog subfamily B member 1 I48C, P25685	-0.073 ± 0.11
DnaJ homolog subfamily B member 1 R13H, P25685	-0.191 ± 0.16
DnaJ homolog subfamily B member 1 E38N, P25685	-0.179 ± 0.2
DnaJ homolog subfamily B member 1 D65I, P25685	-0.387 ± 0.1
DnaJ homolog subfamily B member 1 P33G, P25685	0.017 ± 0.064
DnaJ homolog subfamily B member 1 N36H, P25685	0.002 ± 0.11
DnaJ homolog subfamily B member 1 D65S, P25685	-0.158 ± 0.18
DnaJ homolog subfamily B member 1 E42P, P25685	0.028 ± 0.087
DnaJ homolog subfamily B member 1 N36G, P25685	-0.029 ± 0.08
DnaJ homolog subfamily B member 1 R13V, P25685	-0.157 ± 0.065
DnaJ homolog subfamily B member 1 E18D, P25685	0.034 ± 0.16
DnaJ homolog subfamily B member 1 A41S, P25685	-0.146 ± 0.072
DnaJ homolog subfamily B member 1 Y6R, P25685	-0.986 ± 0.1
DnaJ homolog subfamily B member 1 S16G, P25685	-0.074 ± 0.055
DnaJ homolog subfamily B member 1 L29G, P25685	0.01 ± 0.083
DnaJ homolog subfamily B member 1 S16C, P25685	-0.185 ± 0.077
DnaJ homolog subfamily B member 1 L11R, P25685	-0.96 ± 0.075
DnaJ homolog subfamily B member 1 Y52D, P25685	-0.3 ± 0.17
DnaJ homolog subfamily B member 1 P33V, P25685	-0.078 ± 0.076
DnaJ homolog subfamily B member 1 G40S, P25685	-0.195 ± 0.086
DnaJ homolog subfamily B member 1 A51D, P25685	-1.19 ± 0.16
